Results from patent publication US20110158985A1 (published 2011).
Changes are numbered by the printed parent chain. Names may count otherwise. “And” between values parts separate entries of the source, which are not always exact repeats. Equal entries are not always repeated.

T1: RSV F glycoprotein (NUF4) (respiratory syncytial virus)
T1 chain 1: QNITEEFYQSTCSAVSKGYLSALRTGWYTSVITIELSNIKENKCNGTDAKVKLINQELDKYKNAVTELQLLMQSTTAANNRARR
T1 chain 2: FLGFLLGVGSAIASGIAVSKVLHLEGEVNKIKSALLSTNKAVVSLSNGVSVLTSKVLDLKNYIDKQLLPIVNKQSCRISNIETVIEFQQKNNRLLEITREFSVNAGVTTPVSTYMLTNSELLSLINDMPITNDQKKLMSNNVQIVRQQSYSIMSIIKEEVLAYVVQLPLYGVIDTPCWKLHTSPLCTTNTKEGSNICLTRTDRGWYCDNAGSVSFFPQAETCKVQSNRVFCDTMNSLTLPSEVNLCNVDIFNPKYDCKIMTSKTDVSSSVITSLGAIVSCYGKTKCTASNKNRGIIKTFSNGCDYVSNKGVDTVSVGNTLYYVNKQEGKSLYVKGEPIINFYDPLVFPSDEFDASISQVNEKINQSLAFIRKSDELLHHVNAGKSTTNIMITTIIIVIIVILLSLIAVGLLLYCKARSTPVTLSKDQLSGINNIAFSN

B1: A1e9 IgG (antibody, V domains shown)
VH: QVTLRESGPALVKPTQTLTLTCTFSGFSLSTAGMSVGWIRQPPGKALEWLADIWWDGKKHYNPSLKDRLTISKDTSKNQVVLKVTNMDPADTATYYCARDMIFNWYFDVWGQGTTVTVSS
VL: DIQMTQSPSTLSASVGDRVTITCSLSSRVGYMHWYQQKPGKAPKLLIYDTFKLSSGVPSRFSGSGSGTEFTLTISSLQPDDFATYYCFQGSGYPFTFGGGTKVEIKR
notes: also called Ale9
B2: A8c7 IgG (antibody, V domains shown)
VH: B1 VH with G57D, H60S
VL: B1 VL with L25P, F51R, K52Y, L53Q
B3: palivizumab Fab (papain cleavage of palivizumab IgG) (Fab, V domains shown)
VH: B1 VH with A32S, G57D, H60D, D67S, D100S, F103T, Q112A
VL: DIQMTQSPSTLSASVGDRVTITCKCQLSVGYMHWYQQKPGKAPKLLIYDTSKLASGVPSRFSGSGSGTEFTLTISSLQPDDFATYYCFQGSGYPFTFGGGTKLEIK
notes: also called Palivizumab^a
B4: palivizumab Fab (recombinant) (Fab, V domains shown)
VH: B1 VH with A32S, G57D, H60D, D67S, D100S, F103T, Q112A
VL: B3 VL
B5: G93Y Fab (Fab, name in Kabat numbering, V domains shown)
VH: B1 VH with A32S, G57D, H60D, D67S, D100S, F103T
VL: B3 VL with K24S, C25A, Q26S, L27S, G92Y, L103V
B6: S52Y Fab (Fab, name in Kabat numbering, V domains shown)
VH: B1 VH with A32S, G57D, H60D, D67S, D100S, F103T
VL: B3 VL with K24S, C25A, Q26S, L27S, S51Y, L103V
B7: S52F Fab (Fab, name in Kabat numbering, V domains shown)
VH: B1 VH with A32S, G57D, H60D, D67S, D100S, F103T
VL: B3 VL with K24S, C25A, Q26S, L27S, S51F, L103V
B8: G93W Fab (Fab, name in Kabat numbering, V domains shown)
VH: B1 VH with A32S, G57D, H60D, D67S, D100S, F103T
VL: B3 VL with K24S, C25A, Q26S, L27S, G92W, L103V
B9: 1X-493L1FR Fab (Fab, V domains shown)
VH: B1 VH with A32S, G57D, H60D, D67S, D100S, F103T
VL: B3 VL with K24S, C25A, Q26S, L27S, L103V
notes: also called IX-493L1FR
B10: A17d4(1) Fab (Fab, V domains shown)
VH: B1 VH with H60S, W105F
VL: B3 VL with K24L, C25P, Q26S, L27S, S28R, S51M, K52Y, L53Q, A54S, L103V
B11: A8c7 Fab (Fab, V domains shown)
VH: B1 VH with G57D, H60S
VL: B3 VL with K24S, C25P, Q26S, L27S, S28R, S51R, K52Y, L53Q, A54S, L103V
B12: A4b4 Fab (Fab, V domains shown)
VH: B1 VH with G57D, W105F
VL: B3 VL with K24S, C25A, Q26S, L27S, S28R, S51F, K52F, A54D, L103V
B13: A14a4 Fab (Fab, V domains shown)
VH: B1 VH with G57D, H60S, F103T
VL: B3 VL with K24L, C25L, Q26S, L27S, S28R, S51Y, K52Y, L53Q, A54T, L103V
B14: A17b5 Fab (Fab, V domains shown)
VH: B1 VH with G57D
VL: B3 VL with K24S, C25L, Q26S, L27S, S28R, S51Y, K52Y, A54P, L103V
B15: A17h4 Fab (Fab, V domains shown)
VH: B1 VH
VL: B3 VL with K24S, C25P, Q26S, L27S, S51Y, K52Y, L103V
B16: A16b4 Fab (Fab, V domains shown)
VH: B1 VH with G57D
VL: B3 VL with K24L, C25L, Q26S, L27S, S28R, S51M, K52Y, L53Q, L103V
B17: A3e2 Fab (Fab, V domains shown)
VH: B1 VH with D56G, G57D, K59G
VL: B3 VL with K24S, C25A, Q26S, L27S, S51F, K52Y, A54H, L103V
B18: M3H9 Fab (Fab, V domains shown)
VH: B1 VH with G57D, H60D, D67S
VL: B3 VL with K24S, C25A, Q26S, L27S, S51Y, L53Q, A54T, L103V
B19: 6H8 Fab (Fab, V domains shown)
VH: B1 VH with G57D, H60D, D67S, F103T, W105F
VL: B3 VL with K24S, C25A, Q26S, L27S, S51F, A54T, L103V
B20: L1-7E5 Fab (Fab, V domains shown)
VH: B1 VH with G57D, H60D, D67S, F103T, W105F
VL: B3 VL with K24S, C25A, Q26S, L27S, S28R, S51F, L103V
B21: H3-3F4 Fab (Fab, V domains shown)
VH: B1 VH with G57D, H60D, D67S
VL: B3 VL with K24S, C25A, Q26S, L27S, S51F, L103V
B22: Y10H6 Fab (Fab, V domains shown)
VH: B1 VH with G57D, H60D, D67S
VL: B3 VL with K24S, C25A, Q26S, L27S, S51R, K52Y, A54S, L103V
B23: DG (aka D95/G93) Fab (Fab, V domains shown)
VH: B1 VH with G57D, H60D, D67S, F103T, W105F
VL: B3 VL with K24S, C25A, Q26S, L27S, S51F, L103V
B24: P12f4 Fab (Fab, V domains shown)
VH: B1 VH with A32P, W105F
VL: B3 VL with K24S, C25L, Q26S, L27S, S28R, S51R, K52G, A54P, L103V

Target: Bac-F (respiratory syncytial virus)
Experiment: SPR (BIAcore), mAb vs Bac-F (1:1)

Binder | Kd | fold in parentheses (palivizumab = 1)
B1 | 0.33 nM | 12 fold
B2 | 0.21 nM | 19 fold

Target: T2, recombinant C-terminally truncated RSV (A2 strain) F protein (RSV (A2 strain), UniProt P03420 26-524)
T2 construct: extracellular domain; also called truncated F protein; extracellular domain of the F protein from RSV A2
Experiment: SPR (BIAcore), IgG over immobilised F

Binder | Kd | koff | kon
B1 | 0.33 nM | 0.000143 s⁻¹ | 433000 M⁻¹ s⁻¹
B2 | 0.21 nM | 8.75e-05 s⁻¹ | 417000 M⁻¹ s⁻¹

Target: T2, recombinant C-terminally truncated RSV …
Experiment: SPR (BIAcore), Fab over immobilised F

Binder | Kd | koff | kon
B3 | 6.07 nM | – | –
B4 | 5.25 nM | – | –
B5 | 0.94 nM | 0.000153 s⁻¹ | 162000 M⁻¹ s⁻¹
B6 | 0.74 nM | 0.000125 s⁻¹ | 170000 M⁻¹ s⁻¹
B7 | 0.85 nM | 0.000175 s⁻¹ | 206000 M⁻¹ s⁻¹
B8 | 0.93 nM | 0.00014 s⁻¹ | 150000 M⁻¹ s⁻¹
B9 | 3.52 nM | 0.000651 s⁻¹ | 185000 M⁻¹ s⁻¹

Target: T3, F protein of RSV (Long strain) (RSV (Long strain), UniProt P12568 26-574)
Experiment: cell-based or functional assay

Binder | Mean IC50 (Control) | Mean IC50 (Curve)
B1 | 0.0645 µg/mL | 0.0625 µg/mL
B10 | 0.0171 µg/mL | 0.0179 µg/mL
B11 | 0.157 µg/mL | 0.177 µg/mL
B2 | 0.0383 µg/mL | 0.0337 µg/mL
B12 | 0.0411 µg/mL | 0.0414 µg/mL

Target: T3, F protein of RSV (Long strain)
Experiment: cell-based or functional assay
Remark: another data set of the same source

Binder | Microneutralization IC50, Fab
B4 | 27.5 µg/ml and 549 nM
B5 | 6.26 µg/ml and 125 nM
B6 | 5.99 µg/ml and 120 nM
B7 | 7.27 µg/ml and 1.45 µM
B8 | 6.57 µg/ml and 131 nM
B9 | 26.3 µg/ml and 526 nM

Target: T3, F protein of RSV (Long strain)
Experiment: cell-based or functional assay
Remark: another data set of the same source

Binder | Microneutralization IC50, IgG | Microneutralization IC50, Fab
B1 | 0.0625 µg/ml and 0.42 nM | –
B10 | – | 0.0179 µg/ml and 0.36 nM
B13 | – | > 0.4 µg/ml and > 8 nM
B4 | – | 27.5 µg/ml and 549 nM
B11 | – | 0.177 µg/ml and 3.54 nM
B2 | 0.0337 µg/ml and 0.22 nM | –
B12 | – | 0.414 µg/ml and 0.83 nM
B14 | – | 0.406 µg/ml and 0.92 nM

Target: T1, RSV F glycoprotein (NUF4)
Experiment: SPR (BIAcore), mAb vs NUF4 (1:1)

Binder | Kd | fold in parentheses (palivizumab = 1) | koff | kon
B1 | 0.69 nM | 13 fold | 0.000584 s⁻¹ | 843000 M⁻¹ s⁻¹
B2 | 0.65 nM | 13 fold | 0.000535 s⁻¹ | 825000 M⁻¹ s⁻¹

Target: T2, recombinant C-terminally truncated RSV …
Experiment: SPR (BIAcore), Fab over immobilised F
Remark: another data set of the same source

Binder | Kd | koff | kon
B10 | 0.111 nM | 5.9e-05 s⁻¹ | 531000 M⁻¹ s⁻¹
B15 | 0.202 nM | 0.000105 s⁻¹ | 519000 M⁻¹ s⁻¹
B13 | 0.723 nM | 0.00024 s⁻¹ | 332000 M⁻¹ s⁻¹
B16 | 0.214 nM | 0.000105 s⁻¹ | 490000 M⁻¹ s⁻¹
B4 | 5.25 nM | – | –
B11 | 0.464 nM | 0.0003 s⁻¹ | 647000 M⁻¹ s⁻¹
B17 | 0.157 nM | 9.4e-05 s⁻¹ | 599000 M⁻¹ s⁻¹
B12 | 0.086 nM | 5.2e-05 s⁻¹ | 604000 M⁻¹ s⁻¹
B14 | 0.124 nM | 7.3e-05 s⁻¹ | 590000 M⁻¹ s⁻¹

Target: RSV F protein (purified) (respiratory syncytial virus)
Experiment: SPR (BIAcore), F protein immobilised

Binder | koff | kon
B18 | 0.000338 s⁻¹ | 605000 M⁻¹ s⁻¹
B19 | 0.000178 s⁻¹ and 0.000473 s⁻¹ | 314000 M⁻¹ s⁻¹ and 444000 M⁻¹ s⁻¹
B20 | 0.000192 s⁻¹ and 0.000331 s⁻¹ and 0.000229 s⁻¹ | –
B21 | 0.000445 s⁻¹ and 0.000402 s⁻¹ | –
B22 | 0.000462 s⁻¹ | 757000 M⁻¹ s⁻¹
B23 | 0.000167 s⁻¹ and 0.000444 s⁻¹ | –
B24 | 0.000299 s⁻¹ | 527000 M⁻¹ s⁻¹
B9 | 0.00065 s⁻¹ | 185000 M⁻¹ s⁻¹

Target: T1, RSV F glycoprotein (NUF4)
Experiment: SPR (BIAcore), mAb vs NUF4 (2:1)

Binder | Kd | fold in parentheses (palivizumab = 1) | koff | kon
B1 | 4.22 nM | 74 fold | 0.00139 s⁻¹ | 329000 M⁻¹ s⁻¹
B2 | 2.65 nM | 118 fold | 0.00114 s⁻¹ | 430000 M⁻¹ s⁻¹
